Experiments:
[1] = target: T1, VEGF 1 ZFP (NLS-ZFP-VP16-FLAG) (synthetic construct (SP1 backbone)); test: ChIP anti-FLAG, 293 cells, GAPDH-normalized
T1 chain: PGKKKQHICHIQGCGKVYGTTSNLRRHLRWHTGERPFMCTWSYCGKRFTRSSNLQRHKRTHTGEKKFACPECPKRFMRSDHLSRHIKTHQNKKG
Method: (§1) Immunoprecipitated DNA, obtained as described in Example 11, was used as template in a real-time amplification assay. Three DNA targets were assayed: the integrated reporter gene containing four tandem VEGF 3a/1 binding sites (pGL-VFR), the endogenous VEGF gene, and the endogenous glyceraldehyde phosphate dehydrogenase (GAPDH) gene (which was used as a control for nonspecific precipitation).
(§2) The values obtained for the endogenous VEGF gene (VEGF) and for the integrated reporter containing VEGF target sites (pGL-VFR), normalized to the values obtained for GAPDH, were then normalized to the values obtained for cells transfected with NVF, a construct that lacks a zinc finger DNA-binding domain, to obtain a value for the degree to which VEGF sequences were enriched in immunoprecipitates from cells transfected with a construct encoding a ZFP. […] Furthermore, sequences from an integrated reporter gene containing VEGF target sequences were enriched 170-fold by the VEGF 3a/1 protein and approximately 8-fold by the three-finger VEGF 1 protein.

[2] = target: T1, VEGF 1 ZFP (NLS-ZFP-VP16-FLAG); test: cell_activity; 293 cells; VEGF protein 1.5; mRNA 2.7 and protein 3.1 in Table 9
From the text: Activation of the integrated luciferase reporter gene containing VEGF target sites and immunoprecipitation of reporter sequences by the VEGF 1 and VEGF 3a/1 proteins, as shown in examples 10 and 11, provided evidence that these exogenous ZFPs are binding to their target sites in cellular chromatin. To investigate this question further, the expression of the endogenous VEGF gene was examined in cells containing exogenous VEGF 1 and VEGF 3a/1 proteins. Accordingly, the same samples that were analyzed in Examples 10 and 11 were assayed for endogenous VEGF MRNA (by real-time PCR analysis using reverse transcriptase-mediated PCR) and for VEGF protein (by ELISA). […] The apparent activation of the endogenous VEGF gene by the GATA 15.5 ZFP is explained by the data obtained in Example 14, infra.
The production of mRNA and protein from the endogenous VEGF gene was assayed as described in Example 13, and the results are shown in Table 9. […] The activation of the endogenous VEGF gene by GATA 15.5 is consistent with the ability of this protein to immunoprecipitate endogenous VEGF sequences (Table 7).

[3] = target: BOS 3 fusion (NLS-ZFP-KRAB-FLAG) (synthetic construct); test: ChIP anti-FLAG, MCF-7 cells, amplicon 230 bp upstream of site; conditions: tags: NLS, KRAB repression domain
Method: The sonicated lysate was centrifuged at 13,000 rpm for 10 min at 4° C., and the supernatant was recovered. 1.8 ml of ChIP buffer (16.7 mM Tris-Cl, pH 8.1, 1.2 mM EDTA, 167 mM NaCl, 1.1% Triton X-100, 0.01% SDS, 0.5 mM PMSF, 20 ug/ml aprotinin, 20 ug/ml pepstatin, 20 ug/ml leupeptin) was added to the cleared supernatant and 0.2 ml was removed as a pre-immunoprecipitation (pre-IP) input control. The input control sample was analyzed by agarose gel electrophoresis to verify that DNA fragments of 200-500 nucleotide pairs had been obtained.
The remainder of the sonicated lysate was pre-cleared by adding 0.1 ml of a 50% slurry of Protein A agarose beads (also containing salmon sperm DNA at 200 ug/ml), followed by gentle agitation for 90 min. The lysate was separated from the beads by centrifugation at 1,000 xg for 5 min at 4° C. The cleared lysate was divided into two equal portions. […]
Immune complexes were eluted from the beads by washing them twice with 0.25 ml of 1% SDS, 0.1 M NaHCO₃. […] The purified DNA was analyzed by real-time quantitative PCR, an assay known colloquially as “Taqman®.” The DNA was analyzed for the relative proportion of two sequences: (1) a region located 230 nucleotide pairs upstream of the BOS 3 binding site, and (2) a control sequence from the 18S rRNA gene.

[4] = target: T1, VEGF 1 ZFP (NLS-ZFP-VP16-FLAG); test: ChIP anti-FLAG, 293 cells, GAPDH-normalized; 8.3 in Table 7
Method: as §1, §2

[5] = target: T1, VEGF 1 ZFP (NLS-ZFP-VP16-FLAG); test: cell_activity; 293 cells, integrated reporter; 6 in Table 8

Sequence of BOS 3 fusion (NLS-ZFP-KRAB-FLAG) (synthetic construct) (chain, as listed by the source): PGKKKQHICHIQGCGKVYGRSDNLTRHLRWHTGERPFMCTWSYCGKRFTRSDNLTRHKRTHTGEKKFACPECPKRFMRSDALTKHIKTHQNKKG

B1: endogenous VEGF-A gene target at +1 accessible region (dsDNA)
DNA 1: GGGGAGGATCGCGGAGGCTT
DNA 2: AAGCCTCCGCGATCCTCCCC
[1]
  binding signal: 4.1 fold enrichment vs NVF
[2]
  activity: 3.2 fold VEGF mRNA vs NVF

B2: endogenous ER-alpha gene BOS 3 site, -2 kb hypersensitive region (dsDNA)
DNA 1: GGGGAGGAG
DNA 2: CTCCTCCCC
[3]
  binding signal: ~20 fold enrichment vs cells without BOS3

B3: pGL-VFR integrated reporter, VEGF 3a/1 target (four tandem copies) (dsDNA)
DNA 1: GGGGAGGATCGCGGAGGCTT
DNA 2: AAGCCTCCGCGATCCTCCCC
[4]
  binding signal: 10.7 fold enrichment vs NVF
[5]
  activity: 2.7 fold luciferase vs NVF
